Columns and labels:
[1] = Maximum tolerated dose on a qd×5 schedule in the B16 melanoma model; assay type: in vivo; conditions: IP, C57BL/6 mice
Protocol: (§1) A study was conducted to compare the antitumor activity of poly(HPMA)-GFLG-Ama=Pt=DACH with that of carboplatin in the B16 melanoma model when each agent was administered as an IP injection daily for 5 days (qd×5). The poly(HPMA)-GFLG-Ama=Pt=DACH material was also given at days 15, 16, and 17. Both compounds were given at their respective maximum tolerated (equitoxic) doses on this regimen.
(§2) Female C57BL/6 mice weighing 18–20 g were implanted s.c. with 10^6 B16F10 tumor cells harvested from tissue culture. The size of the resulting tumor was followed individually throughout the study. Tumor mass (in mg) was calculated as (W^2×L)/2, where W is the shorter tumor dimension and L is the longer tumor dimension. Individual treatments were administered when the tumor was 75–100 mg in size. The injection volume was 0.04 mL per gram of body weight, and the drug was administered intraperitoneally. Tumor mass and body weight were measured daily. Data are expressed as the mean±SEM of the tumor mass and are plotted until 50% of the animals in each treatment group have died or been sacrificed due to excessive tumor mass, tumor ulceration, or morbidity. For comparison of the activity of different agents, each administered at its respective maximum tolerated doses (MTD), the MTD is defined as that dose which reproducibly induces no more than 10% (1 out of each 10 animals per group) early toxic deaths not attributable to tumor burden, and which results in a mean maximum body weight loss (i.e., the group mean of the nadir in each individual mouse weight, regardless of the day on which it occurred) of 10–15%, followed by recovery in lost weight.
(§3) A study was conducted to compare the antitumor activity of p(HPMA)-GFLG-C3-Sulf-Ama=Pt=DACH with that of carboplatin in the B16 melanoma model when each agent was administered as an IP injection daily for 5 days (qd×5). Both compounds were given at their respective maximum tolerated (equitoxic) doses on this regimen.
(§4) The methods utilized in this study were identical to those utilized for the p(HPMA)-GFLG-C3-Sulf-Ama=Pt=DACH study of Example 38.

Bl6FI0 melanoma cells = assay: Clonogenic (colony-formation) assay; assay type: cell-based, murine; conditions: 7 days incubation
Protocol: The relative cytotoxic activity of various O,O′—Pt chelate analogs were evaluated in vitro by means of a clonogenic (colony-formation) assay employing a tissue culture of Bl6FI0 melanoma cells. In this way, the activity of the analogs was compared to that of cisplatin and carboplatin. The effect of conversion to an N,O—Pt chelate was also evaluated. Briefly, cells were seeded into culture dishes and allowed to attach. The cultures were incubated for 7 days in medium containing the desired concentration of the test agent. After fixation, the number of cell clusters containing >50 cells was scored as a colony. Each concentration of test agent was assayed in triplicate. The mean number of colonies in each of the triplicate dishes was divided by the mean number of colonies in the control (no test agent) dishes to obtain a percent survival value for each concentration of test agent. The IC50 (concentration resulting in 50% inhibition of growth) of each of the agents was determined by linear regression analysis using the data values directly above and below the 50% survival point.

B16 melanoma = assay: Antitumor activity in the B16 melanoma model, multi-dose protocol; assay type: in vivo; conditions: s.c. B16F10 in C57BL/6 mice
Protocol: as §1, §2, §3, §4

[2] = Platinum release from PBS; assay type: physicochemical; conditions: 37° C.
Protocol: The percent of small platinum species released over time was measured by dissolving about 30 mg of the polymer-platinum conjugate in 15 mL of phosphate buffered saline (10 mM phosphate, 123 mM Cl^−) and incubating the solution at 37° C. in a water bath. At indicated times, 2.0 mL aliquots were transferred to a centrifugal filter with a 3 kDa nominal molecular weight cutoff (Centricon YM-3 from Millipore) and spun until >1.5 mL of filtrate had accumulated. The timed filtrates and the original solution were analyzed for platinum by ICP-OES. The percent of small Pt species released was determined using the formula: ((ppm Pt in filtrate)/(ppm Pt in stock solution))×100.

[3] = Single-dose IV maximum tolerated dose study; assay type: in vivo; conditions: mice, highest dose with no drug-induced deaths
Description: For these studies, the MTD was defined as the highest dose evaluated in which no mouse deaths resulted from drug-induced toxicity.

[4] = Dependence on pH of the isomer ratio of O,O′—Pt to N,O—Pt chelate (195Pt NMR of timed aliquots); assay type: physicochemical
Protocol: The percent of O,O′- and N,O-chelate in timed aliquots of reactions mixtures were determined by removing enough of the reaction mixture (4–15 mL depending on concentration) to give greater than 100 mg of Pt-chelate if only ^195Pt NMR spectroscopy was to be done or about 200 mg if % Pt, and % H2O were also to be determined. The aliquots were purified by ultrafiltration using a Centricon Plus-20 centrifugal filter with a 5 kDa Biomax membrane from Millipore. The charged device was spun at the recommended RCF until less than 1 mL remained. The filtrate was discarded, the retentate was diluted with 15–18 mL water and the sample was centrifuged. This was repeated once more, and the retentate was lyophilized to give the sample for analysis.
^195Pt NMR spectra were obtained from a filtered 0.70 mL solution in 93/7 H2O/D2O in a 5 mm tube. Enough sample (80–120 mg) was used to give a solution that was >50 mM in platinum. The probe was tuned for each sample. A pulse width of 90 degrees, an acquisition time of 10 msec, a spectral window of 100 kHz and no delay was used. The transmitter was tuned to approximately midway between the O,O′—Pt and N,O—Pt chelates shifts (−1896 ppm for cis-diammine Pt and at −2450 for DACH—Pt). Between 50,000 and 1 million transients were typically required to obtain a sufficient (>35:1) s/n ratio for the cis-diammine-Pt and DACH=Pt species, respectively. The resulting FID was increasingly left-shifted until a flat baseline was obtained, a 100 Hz line broadening was applied, and a Fourier fill of 2048 was applied before processing. Integral regions were set and the spectrum's baseline was subjected to a spline fit using VNMR software v6.1. The sample was referenced externally to a 100 mM sample of K2PtCl4 in 95/5H2O/D2O and 100 mM HCl at −1624 ppm. This was also used to determine the 90 degree pulse width and T1.
Four 50 mL Centrifuge tubes were each charged with 1.00 g of p(HPMA)-GFLG-Ama=Pt(NH3)2 (either 100% N,O-chelate) or a 92% O,O-chelate, 8% N,O-chelate mixture. These materials were dissolved in 27 mL Milli-Q water (approx a 4 wt % solution) and adjusted to the pH ranges desired using 1 M NaOH or 5% HClO4 as appropriate. The samples were then heated, with stirring, in a 38° C. water bath and maintained within their specified pH ranges. Timed aliquots were taken and frozen until a suitable time at which point the solutions were concentrated by centrifugal ultrafiltration (one spin down at 4800 rpm, 30° C.) and then transferred to an NMR tube. A small amount of D2O was added to each tube and the ^195Pt NMR spectra were recorded.

[5] = Example 38 study, IP qd×5 at MTD (polymer also days 15, 16, 17)
[6] = Example 39 study, IP qd×5 at MTD
[7] = pH 5.0–5.5, 38° C., 100 mM ClO4^−, 1 h
[8] = pH 5.0–5.5, 38° C., 100 mM ClO4^−, 5 h
[9] = pH 5.0–5.5, 38° C., 100 mM ClO4^−, 8 h
[10] = pH 5.0–5.5, 38° C., 100 mM ClO4^−, 22 h
[11] = pH 5.0–5.5, 38° C., 100 mM Cl^−, 1 h
[12] = pH 5.0–5.5, 38° C., 100 mM Cl^−, 5 h
[13] = pH 5.0–5.5, 38° C., 100 mM Cl^−, 8 h
[14] = pH 5.0–5.5, 38° C., 100 mM Cl^−, 22 h

Compound: N.N.O=C([O-])C1(C(=O)[O-])CCC1.[Pt+2] [Carboplatin, reference compound]
- maximum tolerated dose [1]: 60 mg/kg
- maximum tolerated dose, equivalent in Pt [1]: 32 mg Pt/kg
- IC50 (Bl6FI0 melanoma cells): 2400 nM
- inhibition of tumor growth (B16 melanoma; [5]): modest inhibition of tumor growth
- inhibition of tumor growth (B16 melanoma; [6]): very little inhibition of tumor growth

Compound: N.N.[Cl][Pt][Cl] [Cisplatin, cis-diamminedichloroplatinum(II), reference compound]
- IC50 (Bl6FI0 melanoma cells): 500 nM

Compound: p(HPMA)-GFLG-Ama=Pt=DACH
- maximum tolerated dose [1]: 100 mg Pt/kg
- inhibition of tumor growth (B16 melanoma; [5]): tumor growth was substantially slowed and prolonged

Compound: p(HPMA)-GFLG-Ama═Pt═(NH3)2, 45 kDa, O,O′—Pt
- IC50 (Bl6FI0 melanoma cells): 1000 nM

Compound: p(HPMA)-GFLG-Ama═Pt═(NH3)2, 90 kDa, O,O′—Pt
- IC50 (Bl6FI0 melanoma cells): 900 nM

Compound: poly(HPMA)-GFLG-Ama=Pt(NH3)2, N,O—Pt chelate, >351 kDa [Example 14]
- Pt release in PBS ([2]; 3 hours): 0.68%
- Pt release in PBS ([2]; 24 hours): 2.28%

Compound: poly(HPMA)-GFLG-Ama=Pt(NH3)2O,O′—Pt chelate [Example 3]
- maximum tolerated dose (MTD) [3]: 80–100 mg PVkg
- N,O— chelate ([4]; pH 3.0–3.5, 38° C., 1 h): 0%
- O,O— chelate ([4]; pH 3.0–3.5, 38° C., 1 h): 100%
- N,O— chelate ([4]; pH 3.0–3.5, 38° C., 5 h): 3%
- O,O— chelate ([4]; pH 3.0–3.5, 38° C., 5 h): 97%
- N,O— chelate ([4]; pH 3.0–3.5, 38° C., 20 h): 2%
- O,O— chelate ([4]; pH 3.0–3.5, 38° C., 20 h): 98%
- N,O— chelate ([4]; pH 4.0–4.5, 38° C., 1 h): 25%
- O,O— chelate ([4]; pH 4.0–4.5, 38° C., 1 h): 75%
- N,O— chelate ([4]; pH 4.0–4.5, 38° C., 5 h): 21%
- O,O— chelate ([4]; pH 4.0–4.5, 38° C., 5 h): 79%
- N,O— chelate ([4]; pH 4.0–4.5, 38° C., 20 h): 28%
- O,O— chelate ([4]; pH 4.0–4.5, 38° C., 20 h): 72%
- N,O— chelate [4, 7]: 31%
- O,O— chelate [4, 7]: 69%
- N,O— chelate [4, 8]: 56%
- O,O— chelate [4, 8]: 44%
- N,O— chelate [4, 9]: 67%
- O,O— chelate [4, 9]: 33%
- N,O— chelate [4, 10]: 60%
- O,O— chelate [4, 10]: 40%
- N,O— chelate [4, 11]: 31%
- O,O— chelate [4, 11]: 69%
- N,O— chelate [4, 12]: 54%
- O,O— chelate [4, 12]: 46%
- N,O— chelate [4, 13]: 68%
- O,O— chelate [4, 13]: 32%
- N,O— chelate [4, 14]: 68%
- O,O— chelate [4, 14]: 32%
- N,O— chelate ([4]; pH 5.0–5.5, 38° C., 1 h): 33%
- O,O— chelate ([4]; pH 5.0–5.5, 38° C., 1 h): 67%
- N,O— chelate ([4]; pH 5.0–5.5, 38° C., 5 h): 49%
- O,O— chelate ([4]; pH 5.0–5.5, 38° C., 5 h): 51%
- N,O— chelate ([4]; pH 5.0–5.5, 38° C., 20 h): 65%
- O,O— chelate ([4]; pH 5.0–5.5, 38° C., 20 h): 35%
- N,O— chelate ([4]; pH 6.0–6.5, 38° C., 1 h): 43%
- O,O— chelate ([4]; pH 6.0–6.5, 38° C., 1 h): 57%
- N,O— chelate ([4]; pH 6.0–6.5, 38° C., 5 h): 66%
- O,O— chelate ([4]; pH 6.0–6.5, 38° C., 5 h): 34%
- N,O— chelate ([4]; pH 6.0–6.5, 38° C., 20 h): 91%
- O,O— chelate ([4]; pH 6.0–6.5, 38° C., 20 h): 9%
- IC50 (Bl6FI0 melanoma cells): 800 to 1100 nM

Compound: poly(HPMA)-GFLG-Ama=Pt=DACH, N,O—Pt chelate [Example 6]
- IC50 (Bl6FI0 melanoma cells): < 4000 nM

Compound: poly(HPMA)-GFLG-C3-Sulf-Ama=Pt(NH3)2 N,O-chelate [Example 28]
- Pt release in PBS ([2]; 3 hours): 3.02%
- Pt release in PBS ([2]; 24 hours): 5.44%

Compound: poly(HPMA)-GFLG-NH(CH2)3SO2-Ama=Pt=DACH N,O-chelate [Example 29]
- maximum tolerated dose [1]: 75 mg Pt/kg
- Pt release in PBS ([2]; 3 hours): 2.12%
- Pt release in PBS ([2]; 24 hours): 4.54%
- inhibition of tumor growth (B16 melanoma; [6]): more marked inhibition in tumor growth

Compound: poly(HPMA)-GG-Ama=Pt(NH3)2 N,O Chelate [Example 17]
- Pt release in PBS ([2]; 3 hours): 1.4%
- Pt release in PBS ([2]; 24 hours): 4.6%

Compound: poly(HPMA)-GG-Ama=Pt=DACH N,O-Chelate [Example 18]
- Pt release in PBS ([2]; 3 hours): 1.3%
- Pt release in PBS ([2]; 24 hours): 5.5%

Compound: poly(HPMA)-GG-NH(CH2)3SO2Ama=Pt=DACH, Approx. 22 kDa [Example 25]
- Pt release in PBS ([2]; 3 hours): 1.0%
- Pt release in PBS ([2]; 24 hours): 1.93%

Compound: poly(HPMA)-GGGG-Ama=Pt=1R,2R-DACH N,O-Chelate [Example 21]
- Pt release in PBS ([2]; 3 hours): 0.972%
- Pt release in PBS ([2]; 24 hours): 3.173%

Compound: poly(HPMA)=GFLG-Ama=Pt=DACH, O,O′—Pt chelate [Example 5]
- IC50 (Bl6FI0 melanoma cells): 1000 nM
- Pt release in PBS ([2]; 3 hours): 6.0%
- Pt release in PBS ([2]; 24 hours): 10.9%

— patent publication US7166733B2, “O,O'-Amidomalonate and N,O-Amidomalonate platinum complexes” (priority 2000, dated 2007)
